Results from article PMC11993163, “Structure-function studies of a nucleoplasmin isoform from Plasmodium falciparum” (The Journal of Biological Chemistry, 2025).

How the values were obtained:
assembled H3/H4 tetramer [1] = biological target: T1, assembled H3/H4 tetramer (UniProt P84233 1-136; P62799 1-103); experiment: ITC; conditions: both partners purified
T1 construct: core histone H4, codon-optimized construct in pET21a(+), gift of Dr Curtis A. Davey, expressed without a fusion tag; the species of the histones is told nowhere; copies: 2 + 2

assembled H2A/H2B dimer [2] = biological target: T2, assembled H2A/H2B dimer (UniProt P06897 1-130; P02281 1-126); experiment: ITC; conditions: both partners purified
[3] = biological target: the molecule itself; experiment: AUC; sedimentation velocity, Optima AUC, absorbance at 280 nm 0.2-0.5, continuous size distribution (SEDFIT); PfNPM proteins alone and their histone complexes
assembled H3/H4 tetramer [4] = biological target: T1, assembled H3/H4 tetramer; experiment: AUC; conditions: both partners purified
assembled H2A/H2B dimer [5] = biological target: T2, assembled H2A/H2B dimer; experiment: AUC; conditions: both partners purified
[6] = biological target: the molecule itself; experiment: crystal structure; PfNPM NTD at 57 mg/ml, 0.2 M sodium malonate pH 5.0, 20% PEG3350; 3.25 Å, space group P3(1)21, five chains in the asymmetric unit

Binder	Kd (assembled H3/H4 tetramer [1]) [nM]	stoichiometry N (assembled H3/H4 tetramer [1])	Kd (assembled H2A/H2B dimer [2]) [nM]	stoichiometry N (assembled H2A/H2B dimer [2])	stoichiometry N [3]	stoichiometry N (assembled H3/H4 tetramer [4])	stoichiometry N (assembled H2A/H2B dimer [5])	stoichiometry N [6]
PfNPM A3 (residues 1-170, up to A3 acidic tract) (domain or fragment, Plasmodium falciparum, UniProt C0H4U4 1-170, looked up, PfNPM, nucleoplasmin isoform of Plasmodium falciparum, PlasmoDB PF3D7_0813300, UniProtKB C0H4U4, residues 1-170 (NTD and acidic tracts A1 to A3); pET28a(+) NcoI/XhoI, noncleavable C-terminal hexa-histidine tag; Pentamer by SV-AUC, SAXS and cryo-EM 2D class averages; also called PfNPM (1-170); not shown: His6, C-terminal, kept) MFYGKVVKPDETVVPEVKDGYSVIHLSRACLNNPEHEGKIYVQVEDGNGCYNICCLQKNVCEDTPLDIFLMLDNDVKIKTSGSSNEVHIVGYYEVSFGQDNLDEDEDEFEDEFDNDEVRMLTKKNTLKNSLSNGISKRKKNLENNEDDETNVGRNDEDDDDEDDEDDEDE	38.9 ± 2.2	1	1000 ± 68.2	1	5	1 PfNPM pentamer : H3/H4 tetramer	1 PfNPM pentamer : H2A/H2B dimer	–
PfNPM NTD (Plasmodium falciparum nucleoplasmin N-terminal core domain, residues 1-98) (domain or fragment, UniProt C0H4U4 1-98, looked up, PfNPM, nucleoplasmin isoform of Plasmodium falciparum, PlasmoDB PF3D7_0813300, UniProtKB C0H4U4, residues 1-98 of the 315-residue full length; Cloned into pET28a(+) between NcoI and XhoI with a noncleavable C-terminal hexa-histidine tag; Pentamer by crystal structure, SV-AUC and SAXS; also called PfNPM NTD (1-98); not shown: His6, C-terminal, kept) MFYGKVVKPDETVVPEVKDGYSVIHLSRACLNNPEHEGKIYVQVEDGNGCYNICCLQKNVCEDTPLDIFLMLDNDVKIKTSGSSNEVHIVGYYEVSFG	–	–	–	–	–	–	–	5
PfNPM A1 (residues 1-110, up to A1 acidic tract) (domain or fragment, Plasmodium falciparum, UniProt C0H4U4 1-110, looked up, PfNPM, nucleoplasmin isoform of Plasmodium falciparum, PlasmoDB PF3D7_0813300, UniProtKB C0H4U4, residues 1-110 (NTD and A1 acidic tract); pET28a(+) NcoI/XhoI, noncleavable C-terminal hexa-histidine tag; Pentamer by SV-AUC and SAXS; also called PfNPM (1-110); not shown: His6, C-terminal, kept) MFYGKVVKPDETVVPEVKDGYSVIHLSRACLNNPEHEGKIYVQVEDGNGCYNICCLQKNVCEDTPLDIFLMLDNDVKIKTSGSSNEVHIVGYYEVSFGQDNLDEDEDEFE	58.5 ± 1.76	1	1010 ± 68.6	1	5	1 PfNPM pentamer : H3/H4 tetramer	1 PfNPM pentamer : H2A/H2B dimer	–
